The record followed here is the supplement of paper PMC10201428.

± gives the standard deviation of the averaged measurements.

The data set has as its system VchCAST RNA-guided transposition machinery (E. coli BL21(DE3) host, lacZ target). The experiment in a line: relative integration efficiency (T-LR orientation) vs wild-type transposon end (log2 (normalized fold change)); transposon end mutated: right end (5 bp flank + 75 bp right end); higher = more efficient transposition. A digest of the protocol:
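In E. coli BL21(DE3), a T7-driven effector plasmid was paired with a pUC57 mini-transposon donor containing 1549 left-end or 1849 right-end barcoded transposon variants. Cells grew on plates with 0.1 mM IPTG at 37°C for 18 h. Relative integration efficiency was derived from Illumina reads of genomic integration junctions against input plasmids, as a log-transformed output/input barcode fold change normalised to reference barcodes.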
For the sequence “ACATTTGTTGATACAACCATAAAATGATAATTACACCCATAAATTGATAATTATCACACCCATAAATTGATATTGCCTCTGATCATAGTCAACCATAAAATGATAATTACAGACCAAGCACCGACAC”, the “relative integration efficiency (log2)” value was -0.792 ± 0.34.
“ACATTTGTTGATACAACCATAAAATGATAATTACACCCATAAATTGATAATTATCCACACCATAAATTGATATTGCCTCTGATCATAGTCAGACCAACATTGCTACGACCCGTATTCGCACCGACAC”: the “relative integration efficiency (log2)” value amounted to 0.485 ± 0.4.
The figure for “ACATTTGTTGATACAACCATAAAATCATAATTACACCCATAAATTGATAATTATCACACCCCATTTAACTATAACGCTCTGATCATAGTCAGACCAACATTGCTACGACCCGTATTCGCACCGACAC” is 1.21 ± 0.17.
The figure for “ACATTTGTCGATACAACCCTAAAATGATAATTACACCCATAAATTCATAATTATCACACCCAATTTAACTATAACGCTCTGATCATAGTCAGACCAACATTGCTACGACCCGTATTCGCACCGACAC” is -2.19 ± 0.3; for “ACATTTGTTGATACAACCATATATTGATATCTCCAACCATAAGTTGATATTTTTCACAACCATATATTGATATCTCCTCTGATCATAGTCAGACCAACATTGCTACGACCCGTATTCGCACCGACAC” it is 0.0875 ± 0.82.
The figure for “ACATTTGTTGATACAACCATAAAATGATAATTACACCCATTTTATGATAATTATCACACCCATAAATTGATATTGCCTCTGATCATAGTCAGACCAACATTGCTACGACCCGTATTCGCACCGACAC” is 2.63 ± 0.56.
For “ACATTTGTTCATACAACCATAAAATGATAATTACACCCATAAATGGATCATTATCACCCCCAATTTAACTATAACGCTCTGATCATAGTCAGACCAACATTGCTACGACCCGTATTCGCACCGACAC”, the “relative integration efficiency (log2)” value is -0.469 ± 0.18.
Regarding “ACATTTGTTGATACAACCCTAAAATGATAATTACACCCCTAAATTGATAATTATCACACCCCTAAATTGATATTGCCTCTGATCATAGTCAGACCAACATTGCTACGACCCGTATTCGCACCGACAC”, the “relative integration efficiency (log2)” value was -3.01 ± 0.1.
“ACATTTGTGGATACAACCATAAAATGATAATTCACCCATAAATTGATAATTATCACACCCCAATTTAACTATAACGCTCTGATCATAGTCAGACCAACATTGCTACGACCCGTATTCGCACCGACAC”: the “relative integration efficiency (log2)” value was 1.23 ± 0.028.
Consider “ACATTTGTTGATACAACCATTAAATGATAATTACACCCAAAAATTGATAATTATCACACCCAATTTAACTATAACGCTCTGATCATAGTCAGACCAACATTGCTACGACCCGTATTCGCACCGACAC”, for which the “relative integration efficiency (log2)” value turned out to be 2.03 ± 0.09.
On to “ACATTTGTTGATACAACCATAAAATCATCATTACCCCCATAAATTGATAATTATCACACCCCATTTAACTATAACGCTCTGATCATAGTCAGACCAACATTGCTACGACCCGTATTCGCACCGACAC”, for which the “relative integration efficiency (log2)” value was -0.211 ± 0.014.
The figure for “ACATTTGTTGATACAACCATAAAATTATAATTACACCCATAAATTTATAATTATCACACCCATAAATTTATATTGCCTCTGATCATAGTCAGACCAACATTGCTACGACCCGTATTCGCACCGACAC” is 0.398 ± 0.67; for “ACATTTGTTGATACAACCATAAAATGATAATTACACCCATAAATTGATAATTCGCACACCCATAAATTGATATTGCCTCTGATCATAGTCAGACCAACATTGCTACGACCCGTATTCGCACCGACAC” it is 0.189 ± 0.39; for “ACATTTGTTGATACCACCATAAAATGATAATTACCCCCATAAATTGATAATTATCACCCCCATAAATTGATATTGCCTCTGATCATAGTCAGACCAACATTGCTACGACCCGTATTCGCACCGACAC” it is 1.35 ± 0.29.
“ACATTTCTGGATACAACCATAAAATGATAATTACACCCATAAATTGATCATTATCACACCCAATTTAACTATAACGCTCTGATCATAGTCAGACCAACATTGCTACGACCCGTATTCGCACCGACAC”: the “relative integration efficiency (log2)” value worked out at 0.307 ± 0.3.
For “ACATTTGTTTATACAACCATAAAATGATAATTACACCCATAAATTCATTATTATCACACCCAATTTAACTATAACGCTCTGATCATAGTCAGACCAACATTGCTACGACCCGTATTCGCACCGACAC” the value was -0.961 ± 0.16; for “ACATTTGTTGATACAACCATAAAATGATAATTACACCCATAAATTGATAATTATCACACCCATAAATTGATATTGCCTCTGATCATACAACCATAAAATGATAATTAGTCAGACCAAGCACCGACAC”, -0.751 ± 0.19.
Take “ACATTTGTGGATACAACCATAAAACGATAATTACACCCATAAATTGATAATTATCACACCCAATTTAACTATAACGCTCTGATCATAGTCAGACCAACATTGCTACGACCCGTATTCGCACCGACAC”: the “relative integration efficiency (log2)” value stood at 2.04 ± 0.26.
The figure for “ACATTTGTTGATATGTTGATACAACCATAAAATGATAATTACACCCATAAATTGATAATTATCACACCCATAAATTGATATTGCCTCTGATCATAGTCAGACCAACATTGCTACGACCCGTATTCGC” is 0.26 ± 0.15; for “ACATTTGTTGATACAACCATAAAATGATAATTACAACCATAAAGTGATATTTATCACACCCATAAATTGATATTGCCTCTGATCATAGTCAGACCAACATTGCTACGACCCGTATTCGCACCGACAC” it is -0.0327 ± 0.15.
The figure for “ACATTTGTTGATACAACCATATTATGATAATTACACCCATAAATTGATAATTATCACACCCATAAATTGATATTGCCTCTGATCATAGTCAGACCAACATTGCTACGACCCGTATTCGCACCGACAC” is -0.476 ± 0.63; for “ACATTTGTTGATACAACCATATATTGATATCTCCAACCATAAAGTGATATTTATCACACCCATAAATTGATAATTACTCTGATCATAGTCAGACCAACATTGCTACGACCCGTATTCGCACCGACAC” it is -0.426 ± 0.18; for “ACATTTGTGGATACAACCATAAAATGATAATTACCACCCATACATTGATAATTATCACACCCATTTAACTATAACGCTCTGATCATAGTCAGACCAACATTGCTACGACCCGTATTCGCACCGACAC” it is -0.296 ± 0.095.
As to “ACATTTGTTGATACAACCATAAAATGATAATTAATCACCCATAAATTGATAATTATCACACCCATAAATTGATATTGCCTCTGATCATAGTCAGACCAACATTGCTACGACCCGTATTCGCACCGAC”, the “relative integration efficiency (log2)” value was -0.602 ± 0.3.
Consider “ACATTTGTGGATACAACCATAAAATGATAATTACACCCATAAATTCATAATTATCACCCCCAATTTAACTATAACGCTCTGATCATAGTCAGACCAACATTGCTACGACCCGTATTCGCACCGACAC”, for which the “relative integration efficiency (log2)” value stood at 1.27 ± 0.13.
For “ACATTTGTTGATACAACCATAAAATGATAATTACACCCATAAATTGATAATTATCACACCCATACCGGTCGCGGTAAGAGGATCATAGTCAGACCAACATTGCTACGACCCGTATTCGCACCGACAC”, the “relative integration efficiency (log2)” value was found to be 2.44 ± 0.13.
The figure for “ACATTTGTTGATATAATTATCATTTTATGGTTGCAACCATAAAATGATAATTATGATAATTATCATTTTATGGTTGCTCTGATCATAGTCAGACCAACATTGCTACGACCCGTATTCGCACCGACAC” is -4.33 ± 0.53; for “ACATTGGTGGATACAACCATAAAATGATAATTACACCCATAAATGGATAATTATCACACCCAATTTAACTATAACGCTCTGATCATAGTCAGACCAACATTGCTACGACCCGTATTCGCACCGACAC” it is -5.04 ± 0.46.
For “ACATTTGTTGATACAACCATTAAATGATAATTCCACCCCTAAATTGATAATTATCACACCCAATTTAACTATAACGCTCTGATCATAGTCAGACCAACATTGCTACGACCCGTATTCGCACCGACAC” the value was 0.256 ± 0.39.
Turning to “ACATTTGTTGATACAACCATAAAATGATAATTACACCCATAAATTGATAATTAAGTGACCCATAAATTGATATTGCCTCTGATCATAGTCAGACCAACATTGCTACGACCCGTATTCGCACCGACAC”, the “relative integration efficiency (log2)” value worked out at 0.91 ± 0.58.
For “ACATTTGTACTAACAACCATAAAATGATAATTACACCCATAAATTGATAATTATCACACCCATAAATTGATATTGCCTCTGATCATAGTCAGACCAACATTGCTACGACCCGTATTCGCACCGACAC” the value was -4.23 ± 0.45.
For “ACATTTGTTGATACAACCATAAAATCATTATTACACCCATTAATTGATAATTATCACACCCAATTTAACTATAACGCTCTGATCATAGTCAGACCAACATTGCTACGACCCGTATTCGCACCGACAC” the value was 0.129 ± 0.18.
